Experimental findings from ChEMBL document CHEMBL1123679, “5-Quinone derivatives of 2'-deoxyuridine 5'-phosphate: inhibition and inactivation of thymidylate synthase, antitumor cell, and antiviral studies” (J Med Chem, 1987) are described below.

Substrate in data set [1]: CC1=C(c2cn([C@H]3C[C@H](O)[C@@H](COP(=O)(O)O)O3)c(=O)[nH]c2=O)C(=O)c2ccccc2C1=O
The conditions noted are these: Lacticaseibacillus casei.

Substrate in data set [2]: CC1=C(C)C(=O)C(c2cn([C@H]3C[C@H](O)[C@@H](COP(=O)(O)O)O3)c(=O)[nH]c2=O)=C(C)C1=O
The note with it: Lacticaseibacillus casei.

Substrate in data set [3]: CC1=C(C)C(=O)C(c2cn([C@H]3C[C@H](O)[C@@H](COP(=O)(O)O)O3)c(=O)[nH]c2=O)=CC1=O
The conditions noted are these: Lacticaseibacillus casei.

Substrate in data set [4]: COc1cc(-c2cn([C@H]3C[C@H](O)[C@@H](COP(=O)(O)O)O3)c(=O)[nH]c2=O)c(OC)c(C)c1C
The conditions noted are these: Lacticaseibacillus casei.

Compound in data set [5]: COc1c(C)c(-c2cn([C@H]3C[C@H](O)[C@@H](COP(=O)(O)O)O3)c(=O)[nH]c2=O)c(OC)c2ccccc12
Put plainly: (§1) Ability to inhibit the thymidylate synthase from Lactobacillus casei was determined and expressed as inhibition constant(Km). The note with it: Lacticaseibacillus casei.

Compound in data set [6]: O=C1C=CC(=O)C(c2cn([C@H]3C[C@H](O)[C@@H](COP(=O)(O)O)O3)c(=O)[nH]c2=O)=C1
Described as §1. The note with it: Lacticaseibacillus casei.

Compound in data set [7]: COc1c(C)c(C)c(OC)c(-c2cn([C@H]3C[C@H](O)[C@@H](COP(=O)(O)O)O3)c(=O)[nH]c2=O)c1C
Described as §1. The conditions noted are these: Lacticaseibacillus casei.

Substrate in data set [8]: CC1=C(c2cn([C@H]3C[C@H](O)[C@@H](COP(=O)(O)O)O3)c(=O)[nH]c2=O)C(=O)c2ccccc2C1=O
The note with it: L1210.

Substrate in data set [9]: CC1=C(C)C(=O)C(c2cn([C@H]3C[C@H](O)[C@@H](COP(=O)(O)O)O3)c(=O)[nH]c2=O)=C(C)C1=O
The conditions noted are these: L1210.

Substrate in data set [10]: CC1=C(C)C(=O)C(c2cn([C@H]3C[C@H](O)[C@@H](COP(=O)(O)O)O3)c(=O)[nH]c2=O)=CC1=O
The conditions noted are these: L1210.

B1: Thymidylate synthase (Lactobacillus casei), P00469 (protein)
chain: MLEQPYLDLAKKVLDEGHFKPDRTHTGTYSIFGHQMRFDLSKGFPLLTTKKVPFGLIKSELLWFLHGDTNIRFLLQHRNHIWDEWAFEKWVKSDEYHGPDMTDFGHRSQKDPEFAAVYHEEMAKFDDRVLHDDAFAAKYGDLGLVYGSQWRAWHTSKGDTIDQLGDVIEQIKTHPYSRRLIVSAWNPEDVPTMALPPCHTLYQFYVNDGKLSLQLYQRSADIFLGVPFNIASYALLTHLVAHECGLEVGEFIHTFGDAHLYVNHLDQIKEQLSRTPRPAPTLQLNPDKHDIFDFDMKDIKLLNYDPYPAIKAPVAV
As usually defined, the Km is the concentration of substrate that gives half-maximal velocity. As to B1, the Km in [1] came to 6.41 µM; in [2], 6.98 µM; in data set [3], 6.98 µM; in [4] it was 5.25 µM; in data set [5] it was 5.25 µM; in [6], 7.6 µM. Further, in [7], the Km turned out to be 5.25 µM.

B2: Thymidylate synthase (Mus musculus), P07607 (protein)
chain: MLVVGSELQSDAQQLSAEAPRHGELQYLRQVEHILRCGFKKEDRTGTGTLSVFGMQARYSLRDEFPLLTTKRVFWKGVLEELLWFIKGSTNAKELSSKGVRIWDANGSRDFLDSLGFSARQEGDLGPVYGFQWRHFGAEYKDMDSDYSGQGVDQLQKVIDTIKTNPDDRRIIMCAWNPKDLPLMALPPCHALCQFYVVNGELSCQLYQRSGDMGLGVPFNIASYALLTYMIAHITGLQPGDFVHTLGDAHIYLNHIEPLKIQLQREPRPFPKLKILRKVETIDDFKVEDFQIEGYNPHPTIKMEMAV
On to B2, for which the results for the Michaelis constant (Km) in data set [8], in [9] and in data set [10] were 0.6 µM, 0.57 µM and 2.46 µM, respectively.
